# From patent publication US20110086770A1 (ANAPHORE, published 2011)
# Substitutions are numbered along the chain they refer to.
# T1: recombinant human IL-23R/Fc chimera (R&D Systems) (human, UniProt Q5VWK5 24-353)
# T1 construct: bought; also called human IL-23R/Fc fusion protein; rhIL23RFc
# T1 sequence (looked up): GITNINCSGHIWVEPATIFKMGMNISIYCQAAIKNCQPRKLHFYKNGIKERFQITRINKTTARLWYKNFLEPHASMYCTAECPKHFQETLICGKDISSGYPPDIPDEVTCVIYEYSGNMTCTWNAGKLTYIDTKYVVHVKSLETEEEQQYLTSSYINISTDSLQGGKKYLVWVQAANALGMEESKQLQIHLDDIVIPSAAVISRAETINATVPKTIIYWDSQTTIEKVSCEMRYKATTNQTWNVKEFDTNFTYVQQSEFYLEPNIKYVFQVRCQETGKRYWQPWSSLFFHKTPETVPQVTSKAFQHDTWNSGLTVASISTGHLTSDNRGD
# B1: 105-08-1A8 ATRIMER (designed binder)
# chain: EPPTQKPKKIVNAKKDVVNTKMFEELKSRLDTLAQEVALLKEQQALQTVCLKGTKVHMKCFLAFTQTKTFHEASEDCISRGGTLSTPQTGSENDALYEYLRQSVGNEAEIWLGLNGSPRTNTWVDMTGARIAYKNWETEITAQPDGGFGVFGENCAVLSGAANGKWFDKRCRDQLPYICQFGIV
# notes: not shown: C-terminal tag: Myc/His6 (pANA4) or HA-StrepII (pANA10); A Ser left at the ompA junction may also sit at the N-terminus
# B2: 105-08-2C11 ATRIMER (designed binder)
# chain: B1 chain with P118L, R119K, N121Q, F148W, V150Y
# B3: 105-08-2C8 ATRIMER (designed binder)
# chain: B1 chain with P118W, R119L, N121D, F148W, V150Y
# B4: 105-08-1B7 ATRIMER (designed binder)
# chain: B1 chain with N121D, V150Y
# modifications: Forms a homotrimer (ATRIMER) through the tetranectin coiled coil; one protomer is given.
# notes: not shown: C-terminal tag
# B5: 105-20-2C4a ATRIMER (designed binder)
# chain: B1 chain with P118A, R119K, N121D, F148W, V150Y
# notes: not shown: C-terminal tag: His/Myc (pANA4) or HA-StrepII (pANA10)
# B6: 105-08-1A10 ATRIMER (designed binder)
# chain: B1 chain with P118S, R119I, N121D, F148W, V150Y
# modifications: Forms a homotrimer (ATRIMER) through the tetranectin coiled coil; one protomer is given.
# notes: not shown: C-terminal tag
# B7: 105-08-1D2 ATRIMER (designed binder)
# chain: B1 chain with R119V, N121D, V150Y
# modifications: Forms a homotrimer (ATRIMER) through the tetranectin coiled coil; one protomer is given.
# notes: not shown: C-terminal tag
# B8: 105-08-2A1 ATRIMER (designed binder)
# chain: B1 chain with P118M, N121D, F148W, V150Y
# B9: 105-08-2F6 ATRIMER (designed binder)
# chain: B1 chain with P118A, R119Y, V150Y
# notes: as for B5
# B10: 105-08-2H12 ATRIMER (designed binder)
# chain: B1 chain with N121E, V150Y
# modifications: Homotrimer of the given chain (ATRIMER complex).
# B11: 105-08-2G7 ATRIMER (designed binder)
# chain: B1 chain with R119K, N121G, V150Y
# notes: as for B5
# B12: 105-08-2H4 ATRIMER (designed binder)
# chain: B1 chain with P118V, N121D, V150Y
# B13: 105-20-1H1 ATRIMER (designed binder)
# chain: B1 chain with R119L, F148W, V150Y
# B14: 105-08-1D10 ATRIMER (designed binder)
# chain: B1 chain with P118A, N121G, F148W, V150Y
# notes: as for B5
# B15: 105-08-2C9 ATRIMER (designed binder)
# chain: B1 chain with P118T, R119L, F148W, V150Y
# notes: as for B5
# B16: 105-08-2G4 ATRIMER (designed binder)
# chain: B1 chain with N121G, V150Y
# notes: as for B5
# B17: 105-08-2C10 ATRIMER (designed binder)
# chain: B1 chain with P118L, R119L, N121D
# notes: not shown: C-terminal purification tag: Myc/His6 (pANA4) or HA-StrepII (pANA10)
# B18: 105-08-1G12 ATRIMER (designed binder)
# chain: B1 chain with P118L, N121G, F148W, V150Y
# B19: 105-08-1C3 ATRIMER (designed binder)
# chain: B1 chain with P118Q, R119L, N121D, F148W, V150Y
# B20: 105-08-1B1 ATRIMER (designed binder)
# chain: B1 chain with N121Q, V150Y
# modifications: Homotrimer of the given chain (ATRIMER complex).
# B21: 105-08-2C1 ATRIMER (designed binder)
# chain: B1 chain with P118S, R119L, N121D, F148W, V150Y
# B22: 105-08-1C11 ATRIMER (designed binder)
# chain: B1 chain with P118S, N121D, V150Y
# notes: as for B5
# B23: 105-08-2C4 ATRIMER (designed binder)
# chain: B1 chain with P118L, R119L, V150Y
# modifications: Homotrimer of the given chain (ATRIMER complex).
# B24: 105-08-2B3 ATRIMER (designed binder)
# chain: B1 chain with P118A, R119I, F148W, V150Y
# B25: 105-20-2C4b ATRIMER (designed binder)
# chain: B1 chain with P118V, R119K, N121D, F148W, V150Y
# modifications: Forms a homotrimer (ATRIMER) through the tetranectin coiled coil; one protomer is given.
# notes: not shown: C-terminal tag
# B26: 105-08-2E12 ATRIMER (designed binder)
# chain: B1 chain with P118G, R119L, N121D, F148W, V150Y
# B27: 105-08-2H2 ATRIMER (designed binder)
# chain: B1 chain with R119T, N121D, F148W, V150Y
# B28: 105-08-1C10 ATRIMER (designed binder)
# chain: B1 chain with P118S, R119V, F148W, V150Y
# B29: 105-20-1A6 ATRIMER (designed binder)
# chain: B1 chain with P118A, R119K, N121G, F148W, V150Y
# notes: as for B5
# B30: 105-08-1D3 ATRIMER (designed binder)
# chain: B1 chain with P118K, R119V, N121E, V150Y
# notes: as for B17
# B31: 105-20-1B4 ATRIMER (designed binder)
# chain: B1 chain with P118S, F148W, V150Y
# modifications: Homotrimer of the given chain (ATRIMER complex).
# B32: 105-08-1C2 ATRIMER (designed binder)
# chain: B1 chain with P118R, R119A, N121D, V150Y
# modifications: Forms a homotrimer (ATRIMER) through the tetranectin coiled coil; one protomer is given.
# notes: not shown: C-terminal tag
# B33: 105-08-2H10 ATRIMER (designed binder)
# chain: B1 chain with P118N, R119H, N121D, V150Y
# notes: as for B5
# B34: 105-08-2D2 ATRIMER (designed binder)
# chain: B1 chain with P118A, N121G, V150Y
# modifications: Forms a homotrimer (ATRIMER) through the tetranectin coiled coil; one protomer is given.
# notes: not shown: C-terminal tag
# B35: 105-08-1C4 ATRIMER (designed binder)
# chain: B1 chain with P118T, R119L, N121D, F148W, V150Y
# modifications: Homotrimer of the given chain (ATRIMER complex).
# B36: 105-08-1G9 ATRIMER (designed binder)
# chain: B1 chain with R119K, N121D, V150Y
# notes: as for B5
# B37: 105-08-2C6 ATRIMER (designed binder)
# chain: B1 chain with P118Q, N121D, F148W, V150Y
# B38: 105-08-1C6 ATRIMER (designed binder)
# chain: B1 chain with P118A, R119L, N121D, V150Y
# B39: 105-08-1C9 ATRIMER (designed binder)
# chain: B1 chain with P118T, R119L, N121D, V150Y
# notes: as for B5
# B40: 105-08-1D1 ATRIMER (designed binder)
# chain: B1 chain with P118A, R119L, N121D, F148W, V150Y
# B41: 105-08-2H6 ATRIMER (designed binder)
# chain: B1 chain with R119V, N121G, V150Y
# B42: 105-08-1B10 ATRIMER (designed binder)
# chain: B1 chain with P118R, R119H, N121D, V150Y
# B43: 105-08-1G2 ATRIMER (designed binder)
# chain: B1 chain with P118S, R119K, F148W, V150Y
# notes: as for B5
# B44: 105-08-2G10 ATRIMER (designed binder)
# chain: B1 chain with R119L, N121D, V150Y
# B45: 105-20-1H7 ATRIMER (designed binder)
# chain: B1 chain with P118A, R119G, V150Y
# B46: 105-08-2H11 ATRIMER (designed binder)
# chain: B1 chain with N121D, F148W, V150Y
# B47: 105-08-2C12 ATRIMER (designed binder)
# chain: B1 chain with P118Q, N121D, V150Y
# modifications: Homotrimer of the given chain (ATRIMER complex).
# B48: 105-08-1D12 ATRIMER (designed binder)
# chain: B1 chain with P118V, R119L, N121D, V150Y
# B49: 105-08-2G6 ATRIMER (designed binder)
# chain: B1 chain with P118L, R119L, N121D, F148W, V150Y
# notes: as for B5
# B50: 105-08-2G1 ATRIMER (designed binder)
# chain: B1 chain with R119K, N121H, V150Y
# B51: 105-08-2H3 ATRIMER (designed binder)
# chain: B1 chain with P118S, R119L, F148W, V150Y
# modifications: Homotrimer of the given chain (ATRIMER complex).
# B52: 105-08-2G2 ATRIMER (designed binder)
# chain: B1 chain with P118A, R119I, N121D, F148W, V150Y
# Target: T1, recombinant human IL-23R/Fc chimera …
# Assay: competition ELISA against IL-23
# Experimental: Assays were performed generally as follows. Individual wells in Immulon HB2 plates were incubated overnight at 4° C. with 100 μL PBS containing 100 ng of an anti-human IgG Fc (R&D MAB 110 clone 97924). Plates were washed five times with PBS/0.05% Tween 20, and wells were incubated for 1.5 h at RT with 100 μL each of PBS containing 50 ng of recombinant human IL-23R/Fc. […] Competitor was included at a final concentration of 1 μg/mL. After incubation, plates were washed as described and wells were incubated for 40 min at RT with 100 μL each of PBS containing a 1:5000 dilution of streptavidin-HRP conjugate (Pierce catalog no. 21130). After washing, wells were incubated with 100 μL each of TMB (BioFX Lab catalog no. TMBH-1000-0) for up to 30 min at RT. Reactions were stopped with an equal volume of 0.2 M sulfuric acid.
row,Ratio IC50 to 056-53.H4E IC50 [ratio],Binder
1,1.6,B1
2,9.1,B2
3,8.4,B3
4,4.1,B4
5,2.9,B5
6,4.3,B6
7,4.3,B7
8,5,B8
9,2.4,B9
10,3.3,B10
11,2.5,B11
12,5,B12
13,1.8,B13
14,5.5,B14
15,5.3,B15
16,2.5,B16
17,0.9,B17
18,13.2,B18
19,3.6,B19
20,3.3,B20
21,3.6,B21
22,2.8,B22
23,2.9,B23
24,3.4,B24
25,4.2,B25
26,9.1,B26

row,Ratio IC50 to 056-53.H4E IC50 [ratio],Binder
1,4,B27
2,5,B28
3,6.6,B29
4,0.4,B30
5,3,B31
6,4.1,B32
7,6.5,B33
8,4.1,B34
9,3.3,B35
10,2.4,B36
11,3.6,B37
12,2,B38
13,7.4,B39
14,3.6,B40
15,2,B41
16,4.7,B42
17,5.5,B43
18,1.8,B44
19,2.1,B45
20,4.3,B46
21,3.3,B47
22,4.6,B48
23,5.2,B49
24,2.2,B50
25,2.9,B51
26,3.8,B52
